How the values were obtained:
[1] = molecular target: T1, human SIRPA Fc fusion antigen (human, UniProt P78324 31-373); test: ForteBio IgG avid;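 also: ForteBio sensor-based avid binding of anti-SIRPA antibodies in IgG format, with the binding partner in solution at 100 nM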
T1 construct: heterologous signal peptide; not shown: human IgG1 Fc

[2] = molecular target: T2, human SIRPβ1 Fc fusion antigen (human, UniProt O00241 30-371); test: ForteBio IgG avid;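 also: ForteBio sensor-based avid binding of anti-SIRPA antibodies in IgG format, with the binding partner in solution at 100 nM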
T2 construct: not shown: human IgG1 Fc
T2 sequence (O00241 30-371 limits assumed): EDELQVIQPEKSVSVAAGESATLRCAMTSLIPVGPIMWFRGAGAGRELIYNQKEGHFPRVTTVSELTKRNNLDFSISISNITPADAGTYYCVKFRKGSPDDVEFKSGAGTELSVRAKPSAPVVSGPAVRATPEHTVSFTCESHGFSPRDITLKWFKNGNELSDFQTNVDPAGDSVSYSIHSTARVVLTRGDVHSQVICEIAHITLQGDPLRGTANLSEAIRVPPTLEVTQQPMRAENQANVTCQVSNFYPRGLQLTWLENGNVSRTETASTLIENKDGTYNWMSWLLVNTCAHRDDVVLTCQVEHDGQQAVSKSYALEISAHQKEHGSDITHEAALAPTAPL

Binder	Kd [1] [nM]	Kd [2] [nM]	binding result [2]
SA-8-66 (antibody, V domains shown, IgG) VH: QVQLVESGGGVVQPGRSLRLSCAASGFTFSSYGMHWVRQAPGKGLEWVAVINGDGSNKYYADSVKGRFTISRDNSKNTLYLQMNSLRAEDTAVYYCAKEPRSYWHGYGMDVWGQGTTVTVSS VL: not shown	2.14	13.1	
SA-5-61 (antibody, V domains shown, IgG) VH: EVQLLESGGGLVQPGGSLKLSCAASGFTFDSYAMSWVRQAPGKGLEWVSAISGSGGSTYYADSVKGRFTISRDNSKNTLYLQMNSLRAEDTAVYYCAKDTGIDFWGQYPPYFDLWGRGTLVTVSS VL: DIQLTQSPSSVSASVGDRVTITCRASQDISSWLAWYQQKPGKAPKLLIYAASSLQSGVPSRFSGSGSGTDFTLTISSLQPEDFATYYCQQGYIFPRTFGGGTKVEIK	2.3	9.31	
SA-5-57 (antibody, V domains shown, IgG) VH: EVQLLESGGGLVQPGGSLRLSCAASGFTFDSYAMSWVRQAPGKGLEWVSATSGGGGSTYHADPVKGRFTISRDNSKNTLYLQMNSLRAEDTAVYYCAKDITDDFWSVTPPYFDLWGRGTLVTVSS VL: DIQLTQSPSSVSASVGDRVTITCRASQDISSWLAWYQQKPGKAPKLLIYAASSLQSGVPSRFSGSGSGTDFTLTISSLQPEDFATYYCQQGYIFPRTFGGGTKVEIK	2.61		no binding (tested: 100 nM)
SA-5-58 (antibody, V domains shown, IgG) VH: EVQLLESGGGLVQPGGSLRLSCAASGFTFDSYAMSWVRQAPGKGLEWVSAISGSGGSTYHADSVKGRFTISRDNSKNTLYLQMNSLRAEDTAVYYCAKDTGISLWSVTPPYFDLWGRGTLVTVSS VL: DIQLTQSPSSVSASVGDRVTITCRASQDISSWLAWYQQKPGKAPKLLIYAASSLQSGVPSRFSGSGSGTDFTLTISSLQPEDFATYYCQQGYIFPRTFGGGTKVEIK	2.78		no binding (tested: 100 nM)
SA-13-68 (antibody, V domains shown, IgG) VH: EVQLLESGGGLVQPGGSLRLSCAASGFTFTEYAMSWVRQAPGKRLEWVSAISGSGGSTYYADSVKGRFTISRDNSKNTLYLQMSSLRAEDTAVYYCARDNIQWGPHFYWGQGTLVTVSS VL: DIQMTQSPSSLSASVGDRVTITCRASQSISSYLNWYQQKPGKAPKLLIYAASSLQSGVPSRFSGSGSGTDFTLTISSLQPEDFATYYCQQGYIYPPTFGGGTKVEIK	1.92	3.45	
SA-5-59 (antibody, V domains shown, IgG) VH: EVQLLESGGGLVQPGGSLRLSCAASGFTFDNYAMSWVRQAPGEGLEWVSAVSGSGGSTYYADSVRGRFTISRDNSKNTLYLQMDSLRAEDTAVYYCAKDTGIDFWARTPPYFDLWGRGTLVTVSS VL: DIQLTQSPSSVSASVGDRVTITCRASQDISSWLAWYQQKPGKAPKLLIYAASSLQSGVPSRFSGSGSGTDFTLTISSLQPEDFATYYCQQGYIFPRTFGGGTKVEIK	3.03		no binding (tested: 100 nM)
SA-19-78 (antibody, V domains shown, IgG) VH: QVQLVESGGGVVQPGRSLRLSCAASGFTFSSYGMHWVRQAPGKGLEWVAVIAYDGSNKLYADSVKGRFTISRDNSKNTLYLQMDSLRAEDTAVYYCATSDTKYTLGFAFDIWGQGTMVTVSS VL: not shown	1.06	2.08	
SA-19-82 (antibody, V domains shown, IgG) VH: QVQLVESGGGVVQPGRSLRLSCAASGFTFSSYAMHWVRQAPGKGLEWVAGILYDGSNKYYADSVKGRFTISRDNSKNTLYLQMNSLRAEDTAVYYCARHVLKYTLGFAFDIWGQGTMVTVSS VL: not shown	0.742	3.45	
SA-19-80 (antibody, V domains shown, IgG) VH: EVQLLESGGGVVQPGRSLRLSCAASGFTFSSYGMHWVRQAPGKGLEWVAGILYDGSNKYYADSVKGRFTISRDNSKNTLYLQMDGLRAEDTAVYYCARHSVKYTLGFAFDIWGQGTMVTVSS VL: not shown	1.41	4.25	
SA-19-81 (antibody, V domains shown, IgG) VH: QVQLVESGGGVVQPGRSLRLSCAASGFTSSSYGMHWVRQAPGKGLEWVAVIAYDGSNKLYADSVKGRFTISRDNSKNTLYLQMNSLRAEDTAVYYCARTPTKYTLGFAFDIWGQGTMVTVSS VL: not shown	0.711	2.59	
SA-8-64 (antibody, V domains shown, IgG) VH: QVQLVESGGGLVKPGGSLRLSCAASGFTFSSYSMHWVRQAPGKGLEWVSSISSSDSWIYYADSVKGRFTISRDNAKNSLYLQMNSLRAEDTAVYYCAKEPRSYWHGYGMDVWGQGTTVTVSS VL: not shown	0.952	8.36	
SA-8-67 (antibody, V domains shown, IgG) VH: EVQLVESGGGLVKPGGSLRLSCAASGFTFSSYSMHWVRQAPGKGLEWVSSISSSPSHIYYADSVKGRFTISRDNAKNSLYLQMNSLRAEDTAVYYCAKEPRSYWHGYGMDVWGQGTTVTVSS VL: not shown	1.84	14.2	

The next binders have a lower Kd [1] than those just listed; values first:

Kd [1] [nM]	Kd [2] [nM]	binding result [2]	Binder
0.339	12.4		SA-56-86 (antibody, V domains shown, IgG) VH: QVQLVESGGGVVQPGGSLRLSCAASGFTFSYYGMSWVRQAPGKGLEWVASIWVDGSSKYYADSVKGRFTISRDNSKNTLYLQMNSLRAEDTAVYYCARGVETYSGPNWFDPWGQGTLVTVSS VL: DIQMTQSPSSVSASVGDRVTITCRASQGISSWLAWYQQKPGKAPKLLIYAASSLQSGVPSRFSGSGSGTDFTLTISSLQPEDFATYYCQQAIYFPITFGGGTKVEIK
0.396		no binding (tested: 100 nM)	SA-56-87 (antibody, V domains shown, IgG) VH: EVQLVESGGGVVQPGRSLRLSCAASGFTFSYYGMSWVRQAPGKGLEWVASIWVDGSNKYYADSVKGRFTISRDNSKNTLYLQMNSLRAEDTAVYYCAFGLETYSGPNWFDPWGQGTLVTVSS VL: DIQMTQSPSSVSASVGDRVTITCRASQGISSWLAWYQQKPGKAPKLLIYAASSLQSGVPSRFSGSGSGTDFTLTISSLQPEDFATYYCQQAIYFPITFGGGTKVEIK
0.415		no binding (tested: 100 nM)	SA-56-89 (antibody, V domains shown, IgG; also called SA-89) VH: EVQLVESGGGVVQPGGSLRLSCAASGFTFSYYGMSWVRQAPGKGLEWVASIWVDGSNKYYADSVKGRFTVSRDNSKNTLYLQMDSLRAEDTAVYYCARGVETYSGPNWFDPWGQGTLVTVSS VL: DIQMTQSPSSVSASVGDRVTITCRASQGISSWLAWYQQKPGKAPKLLIYAASSLQSGVPSRFSGSGSGTDFTLTISSLQPEDFATYYCQQAIYFPITFGGGTKVEIK
0.379		no binding (tested: 100 nM)	SA-56-88 (antibody, V domains shown, IgG) VH: EVQLVESGGGVVQPGRSLRLSCAASGFTFSYYGMSWVRQAPGKGLEWVASIWVDGSNKYYADSAKGRFTISRDNSKNTLYLQMNSLRAEDTAVYYCAEGKETYSGPNWFDPWGQGTLVTVSS VL: DIQMTQSPSSVSASVGDRVTITCRASQGISSWLAWYQQKPGKAPKLLIYAASSLQSGVPSRFSGSGSGTDFTLTISSLQPEDFATYYCQQAIYFPITFGGGTKVEIK
0.378		no binding (tested: 100 nM)	SA-56-90 (antibody, V domains shown, IgG; also called SA-90) VH: QVQLVESGGGVVQPGRSLRLSCAASGSTFSHYGMSWVRQAPGKGLEWVASIWVDGSNKYYADSVKGRFTISRDNSKNTLYLQMDSLRAEDTAVYYCARGVETYSGPNWFDPWGQGTLVTVSS VL: DIQMTQSPSSVSASVGDRVTITCRASQGISSWLAWYQQKPGKAPKLLIYAASSLQSGVPSRFSGSGSGTDFTLTISSLQPEDFATYYCQQAIYFPITFGGGTKVEIK
0.412		no binding (tested: 100 nM)	SA-56-91 (antibody, V domains shown, IgG) VH: EVQLVESGGGVVQPGRSLRLSCAASGFTFAHYGMAWVRQAPGKGLEWVASIWVDGSNKYYADSVKGRFTISRDNSKNTLYLQMNSLRAEDTAVYYCATAVETYSGPNWFDPWGQGTLVTVSS VL: DIQMTQSPSSVSASVGDRVTITCRASQGISSWLAWYQQKPGKAPKLLIYAASSLQSGVPSRFSGSGSGTDFTLTISSLQPEDFATYYCQQAIYFPITFGGGTKVEIK
0.341		no binding (tested: 100 nM)	SA-56-85 (antibody, V domains shown, IgG; also called SA-85) VH: EVQLLESGGGVVQPGRSLGLSCAASGSTFSYYGMSWVRQAPGKGLEWVASIWVDGSNKYYADSVKGRFTISRDNSKSTLYLQMNSLRAEDTAVYYCARGVETYSGPNWFDPWGQGTLVTVSS VL: DIQMTQSPSSVSASVGDRVTITCRASQGISSWLAWYQQKPGKAPKLLIYAASSLQSGVPSRFSGSGSGTDFTLTISSLQPEDFATYYCQQAIYFPITFGGGTKVENQ
0.441	3.94		SA-19-77 (antibody, V domains shown, IgG) VH: QVQLVESGGGVVQPGRSLRLSCAASGFTFSSYGMAWVRQAPGKGLEWVAQILYDGSNEYYADSVKGRFTISRDNSKNTLYLQMNSLRAEDTAVYYCARDLTKYTLGFAFDIWGQGTMVTVSS VL: not shown
0.573	2.6		SA-19-84 (antibody, V domains shown, IgG) VH: QVQLVESGGGVVQPGRSLRLSCAASGFTFSSYGMHWVRQAPGKGLEWVAVIAYDGSNKLYADSVKGRFTISRDNSKNTLYLQMNSLRAEDTAVYYCARTQLKYTLGFAFDIWGQGTMVTVSS VL: not shown
0.31	1.36		SA-19-79 (antibody, V domains shown, IgG) VH: QVQLVESGGGVVQPGRSLRLSCAASGFTFSSYGMHWVRQAPGKGLEWVAVIAYDGSNKIYADSVKGRFTISRDNSKNTLYLQMNSLRAEDTAVYYCATTDTKYTLGFAFDIWGQGTMVTVSS VL: not shown
0.505	2.82		SA-19-83 (antibody, V domains shown, IgG) VH: QVQLVESGGGVVQPGRSLRLSCAASGFTFDSYLMHWVRQAPGKGLEWVASIIYDGSNKYYADSVKGRFTISRDNSKNTLYLQMNSLRAEDTAVYYCASVRTKYTLGFAFDIWGQGTMVTVSS VL: not shown
0.371	4.67		SA-8-62 (antibody, V domains shown, IgG) VH: QVQLVESGGGLVKPGGSLRLSCAASGFTFSSYSMHWVRQAPGKGLEWVSSISSSDSWIYYADSVKGRFTISRDNAKNSLYLQMDSLRAEDTAVYYCAKERVDYWHGYGMDVWGQGTTVTVSS VL: not shown

Reference: patent US20240270866A1 (Alector, published 2024)
